# Molecular target: hnRNP G-T RRM (Homo sapiens) (UniProt O75526)
# Assay: EMSA
# Conditions: EMSA with radio-labelled T7 transcripts and 30 or 100 ng RRM protein; buffer, salt, pH and temperature not given in material
# hnRNP G-T RRM (Homo sapiens), sequence (O75526 8-86): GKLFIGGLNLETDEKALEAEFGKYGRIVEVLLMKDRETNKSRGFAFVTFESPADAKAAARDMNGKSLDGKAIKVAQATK
sequence,measurement,value
AGGUAUUGGGCUUUGGCUGAGGGCUUUUUGUUGUUGUUGUUGUUGUU [ABwt],Kd,1.7 nM

# From PMC2762042
